According to the Human Domainome abundance scans (Beltran et al. 2025):

B1: POU domain, class 3, transcription factor 2, residues 356 to 411; numbered along this chain, P20265 (parent)
chain: KKRTSIEVSVKGALESHFLKCPKPSAQEITSLADSLQLEKEVVRVWFCNRRQKEKR

Variants of: B1
Assay: abundance fitness (aPCA) (normalised: wild type 0, dead -1); higher = more abundant; growth selection in yeast, the domain comes from the species named
Conditions: Homo sapiens

Abundance fitness of substitutions, site by site:
A33: C -0.428 | H -0.789 | V -0.71 | W -0.735 | I -1.03 | Q -1.12 | P -0.794 | F -0.599 | M -0.759 | S -0.236 | G -0.806 | N -0.963 | K -0.631 | T -0.83 | E -0.55 | R -0.936 | Y -0.963
T30: H -0.205 | Y -0.285 | I -0.237 | C -0.131 | K 0.008 | E 0.022 | A -0.041 | N 0.212 | L -0.091 | V -0.016 | W -0.324 | F -0.396 | S 0.036 | D 0.05 | R -0.151 | Q 0.078
E28: I -0.52 | A -0.257 | M -0.437 | D -0.281 | R -0.466 | Q -0.402 | K -0.413 | C -0.299 | P -0.802 | V -0.195 | L -0.369 | T -0.088 | S -0.455 | N -0.551 | F -0.511 | W -0.505
L32: P -0.944 | A -0.994 | F -0.341 | S -0.875 | G -0.834 | K -0.927 | H -0.857 | Q -0.789 | R -0.911 | D -1.03 | N -1.07 | V -0.303 | W -0.915 | Y -0.831 | I -0.161 | T -0.943 | M -0.08 | E -0.916
D34: W 0.153 | Q 0.105 | R 0.244 | A 0.082 | N 0.148 | T 0.055 | G -0.1 | H 0.212 | V -0.04 | K 0.191 | E -0.023 | P -0.719 | F 0.031 | S -0.041 | M 0.01 | Y 0.184 | L 0.098
A26: Q 0.01 | R -0.13 | W -0.11 | M 0.03 | L -0.179 | N -0.097 | P -0.224 | Y -0.235 | V -0.049 | S -0.134 | T -0.033 | K -0.162
S35: A -0.086 | H -0.026 | K 0.136 | R 0.051 | E 0.03 | M -0.095 | Q 0.008 | N -0.125 | L -0.065 | V -0.119 | D 0.091 | W -0.113 | P -0.961 | C -0.133 | T 0.026 | F -0.22 | G -0.033 | I -0.062 | Y -0.115
L36: N -0.543 | H -0.527 | Y -0.151 | C -0.428 | E -0.892 | G -0.866 | R -0.938 | W -0.545 | D -0.842 | Q -1.25 | P -0.608 | F -0.291 | V -0.53 | I -0.7 | A -0.929 | T -0.7 | M -0.564 | K -0.868
I29: M -0.093 | R -0.93 | W -0.855 | S -0.884 | L -0.095 | K -0.994 | N -1.05 | A -1.03 | H -0.817 | C -0.633 | Y -0.741 | Q -0.782 | E -0.763 | F -0.786 | V -0.158 | T -0.593
Q27: E -0.155 | N 0.028 | W -0.292 | G -0.131 | S -0.079 | P -0.21 | K -0.014 | R -0.007 | A -0.126 | V -0.061 | F -0.327 | H 0.092 | C -0.081 | M -0.35 | Y -0.268 | T 0.02 | I -0.14 | D -0.08
